Legend:
[1] = molecular target: T1, chymase (Homo sapiens, UniProt P23946 P23946:22-247); assay: inhibition; angiotensin I; recombinant 0.036; settings: tags: human skin mast cell, Calbiochem
T1 sequence: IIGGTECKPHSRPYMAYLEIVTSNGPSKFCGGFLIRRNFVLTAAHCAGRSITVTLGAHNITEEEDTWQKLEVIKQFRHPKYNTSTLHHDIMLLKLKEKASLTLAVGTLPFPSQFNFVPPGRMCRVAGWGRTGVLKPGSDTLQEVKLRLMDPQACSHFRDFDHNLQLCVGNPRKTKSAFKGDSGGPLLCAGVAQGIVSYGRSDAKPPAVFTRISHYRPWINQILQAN
Protocol: (§1) The total volume of solution for an enzyme reaction in the assay was set to 50 μL, and the reaction was performed in solution C buffer. First, 0.3-0.75 ng of chymase (recombinant, (manufactured by SIGMA) or native (manufactured by Calbiochem)) was diluted with solution C to give 5 μL thereof. Here, the recombinant is chymase expressed by yeast, and the native is chymase purified from human skin mast cell. The nucleic acid was serially diluted with solution C at a concentration of 0.0027-2 μM to give 25 μL thereof. The chymase solution (5 μL) and the nucleic acid solution (25 μL) were mixed, and the mixture was incubated at 37° C. for 5 min. […] The whole mixture was centrifuged at 4° C., 14000 rpm for 10 min, and the supernatant (30 μL) was used for the next fluorescence induction reaction.
(§2) The above-mentioned supernatant (30 μL) was added to a 96 well plate (black, manufactured by Costar), a solution (15 μL) of 2% o-phthalaldehyde (manufactured by SIGMA) in methanol and 0.3M NaOH solution (170 μL) were added to each well, and the mixture was incubated at room temperature for 10 min. […] The plate was set on a microplate reader SpectraMax190 (manufactured by Molecular device) and the fluorescence intensity was measured at an excitation wavelength of 355 nm and a fluorescence wavelength of 460 nm.

[2] = molecular target: T1, chymase; assay: inhibition; angiotensin I; recombinant 0.065; settings: tags: human skin mast cell, Calbiochem
Protocol: as §1, §2

[3] = molecular target: T1, chymase; assay: inhibition; Suc-AAPF-MCA, 37 C, solution C; settings: tags: recombinant, expressed in yeast, SIGMA
Procedure, shortened: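 Nucleic acids, serially diluted to 0.0027-2 μM before mixing, were preincubated with substrate in solution C for 5 min at 37 °C. Recombinant chymase started the reaction (final 16.7 nM or 1.67 nM; substrate 100 μM). AMC fluorescence (ex 380/em 460 nm) was followed for 5 (or 30) min; initial slope versus uninhibited velocity gave inhibition.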

[4] = molecular target: T1, chymase; assay: inhibition; angiotensin I; recombinant 0.158; settings: tags: human skin mast cell, Calbiochem
Protocol: as §1, §2

[5] = molecular target: T1, chymase; assay: inhibition; angiotensin I; recombinant 0.201; settings: tags: human skin mast cell, Calbiochem
Protocol: as §1, §2

[6] = molecular target: T1, chymase; assay: inhibition; angiotensin I; recombinant 0.370; settings: tags: human skin mast cell, Calbiochem
Protocol: as §1, §2

[7] = molecular target: T1, chymase; assay: inhibition; angiotensin I; recombinant 0.043; settings: tags: human skin mast cell, Calbiochem; label: 5' biotin
Protocol: as §1, §2

GGGTTAGAUAGAGTUAAAAACCC (mixed, 2'-F U; 2'-OMe 1-3,7,10,13,16-20; DNA T4,T5,A8,T14,C21-C23; 5' and 3' idT) [72(1)] was tested. Which IC50 [1] did it give?
The IC50 was 103 nM.

With GGGTTAGAUAGAGTUAAAAACCC (mixed, 2'-F U; 2'-OMe 1-3,7,8,10,13,16-20; DNA T4,T5,T14,C21-C23; 5' and 3' idT) [SEQ 72] as the binder, how does the IC50 [2] read?
Its IC50 is 120 nM.

B1: 72(7) (mixed)
mixed: GGGTTAGAUAGAGTUAAAAACCC
modifications: 2'-F U; 2'-OMe 1-3,7,10,13,16-20; DNA T4,T5,A8,T14,C21-C23; 5' idT; 3' PEG 40 kDa
For B1, which IC50 [3] is on record?
The IC50 was 55 nM.

And the IC50 [4]?
Its IC50 is 312 nM.

GGGTTAGAUAGAGTUAAAAACCC (mixed, 2'-F U; 2'-OMe 1-3,7,8,10,13,16,18-20; DNA T4,T5,T14,A17,C21-C23; 5' and 3' idT) [72(5)] was tested. Which IC50 [3] did it give?
Its IC50 is 27 nM.

And the IC50 [5]?
Its IC50 is 377 nM.

B2: 72(6) (mixed)
mixed: GGGTTAGAUAGAGTUAAAAACCC
modifications: 2'-F U; 2'-OMe 1-3,7,8,10,13,16,17,19,20; DNA T4,T5,T14,A18,C21-C23; 5' and 3' idT
Which results are given for B2?
IC50 [6]: 573 nM; IC50 [3]: 41 nM

Which IC50 [7] does the source give for GGGTTAGAUAGAGTUAAAAACCC (mixed, 2'-F U; 2'-OMe 1-3,7,10,13,16-20; DNA T4,T5,A8,T14,C21-C23; 5' and 3' idT) [72(8)] here?
Its IC50 is 97 nM.

From US9012420B2, “Aptamer for chymase, and use thereof” (Ribomic Inc., priority 2009, dated 2015)
